Reference: patent US7153676B1, “Transacylases of the paclitaxel biosynthetic pathway” (priority 1999, dated 2006)
“Also recorded” adds a separate entry of the source.

Assays:
[1] = target: T1, taxane-2α-O-benzoyl transferase (TAX2) (Taxus cuspidata, UniProt Q9FPW3); assay: recombinant TAX2 benzoyl transferase screening assay (radio-HPLC); type: biochemical; details: UV and radioactivity profiles
T1 construct: Full-length insert fragments of the relevant plasmids are excised and subcloned in-frame into the expression vector pCWori+; made in house; host or cells: E. coli JM109 (pCWori+)
T1 sequence (Q9FPW3 1-440): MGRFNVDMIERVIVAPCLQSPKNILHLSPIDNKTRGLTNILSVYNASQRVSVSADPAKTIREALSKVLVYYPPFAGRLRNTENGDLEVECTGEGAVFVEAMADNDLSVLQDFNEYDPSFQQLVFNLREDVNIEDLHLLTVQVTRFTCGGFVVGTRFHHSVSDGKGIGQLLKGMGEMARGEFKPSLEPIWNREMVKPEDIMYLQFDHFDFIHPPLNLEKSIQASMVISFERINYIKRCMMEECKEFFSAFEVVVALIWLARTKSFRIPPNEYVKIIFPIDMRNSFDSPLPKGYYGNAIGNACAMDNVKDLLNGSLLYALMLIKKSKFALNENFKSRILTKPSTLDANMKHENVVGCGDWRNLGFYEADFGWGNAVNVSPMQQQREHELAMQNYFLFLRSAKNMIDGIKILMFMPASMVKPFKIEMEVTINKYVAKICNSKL
Experimental: TAX2, TAX5, TAX7, TAX9, TAX10, TAX 12, and TAX13 ([…]) were expressed in bacteria using the following protocol. For a typical preparation of the recombinant enzyme, each of the E. coli cultures transformed with a pCWori+ vector harboring a putative transacylase gene was grown overnight at 37° C. in 5 mL Luria-Bertani medium supplemented with 50 μg ampicillin/mL. 1 mL of these cultures was individually added to separate aliquots of 100 mL Terrific Broth culture medium (6 g bacto-tryptone (Difco Laboratories, Spark, Md.), 12 g yeast extract (EM Science, Cherryhill, N.J.), and 2 mL glycerol in 500 mL water) and grown at 37° C. After 3 hours, the medium was supplemented with 1 mM isopropyl-β-D-thiogalactopyranoside for induction and 50 μg ampicillin/mL, and the cultures were grown at 25° C. […]
A 1-mL aliquot of each soluble enzyme preparation was incubated with 2-debenzoyl-7,13-diacetylbaccatin III (500 μM) and [7-^14C]benzoyl coenzyme A (500 μM, 9.3 μCi) for 1.5 hours at 31° C. […] The resulting crude products of the assay were dissolved in acetonitrile (50 μL) and analyzed by radio-HPLC using a Perkin Elmer HPLC ISS 200 coupled to a PACKARD RADIOMATIC™ radioactivity detector series A100 (Canberra, Ind., Meriden, Conn.) (see FIGS. 12A and 12B for a representative chromatogram). […]

TAX2 gene product = target: T2, TAX2 gene product (Taxus cuspidata, UniProt Q9FPW3); assay: recombinant TAX2 expressed in E. coli JM109, acetyl transacylase assay; type: biochemical; details: [3H]taxadienol and acetyl CoA co-substrates
T2 construct: Full-length insert fragments of the relevant plasmids are excised and subcloned in-frame into the expression vector pCWori+; made in house; host or cells: E. coli JM109 (pCWori+)
T2 sequence (Q9FPW3 1-440): T1 sequence (Q9FPW3 1-440)
Experimental: To determine the identity of the putative taxadienol acetyl transacylase, TAX1 (SEQ ID NO: 28), TAX2 (SEQ ID NO: 26), and TAX6 (SEQ ID NO: 45) were subcloned in-frame into the expression vector pCWori+ (Barnes, Methods Enzymol. 272:3–14, 1996) and expressed in E. coli JM109 cells. The transformed bacteria were cultured and induced with isopropyl β-D-thiogalactoside (IPTG), and cell-free extracts were prepared and evaluated for taxadienol acetyl transacylase activity using the previously developed assay procedures (Walker et al., Arch. Biochem. Biophys. 364:273–279, 1999). Clone TAX1 (corresponding directly to Probe 1) expressed high levels of taxadienol acetyl transacylase activity (20% conversion of substrate to product), as determined by radiochemical analysis; the product of this recombinant enzyme was confirmed as taxadienyl-5α-yl acetate by gas chromatography-mass spectrometry (GC-MS) (FIGS. 5A–5G). […] Neither of the recombinant proteins expressed from TAX1 (SEQ ID NO: 28) or TAX2 (SEQ ID NO: 26) was capable of acetylating the advanced paclitaxel precursor 10-deacetyl baccatin III to baccatin III. […]

B1: TAX2: full-length clone, SEQ ID NO: 25/26; taxane-2α-O-benzoyl transferase (protein, listed as Taxus cuspidata)
chain: T1 sequence (Q9FPW3 1-440)
- product from 2-debenzoyl-7,13-diacetylbaccatin III and [7-14C]benzoyl CoA [1]: coincide exactly with the retention time of authentic 7,13-diacetylbaccatin III
- taxadienol acetyl transacylase activity (TAX2 gene product): did not express taxadienol acetyl transacylase activity; also recorded: inactive
